In the domain aggregation screens of Martell et al. (2025):

Test: soluble fraction after stress (log2 fold change); higher = more stays soluble; pooled small domains, quantitative proteomics
Conditions: stress: 50 degC
In short: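 The stress applied to every library was 50°C. These custom libraries of small protein domains were pooled and measured at high throughput with quantitative proteomics as the read-out. Aggregation propensity is expressed as the base-two logarithm of the fold change in how much of each protein remains soluble. The higher the value, the more of that protein stays in solution.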

Sequence	soluble fraction (log2)
HMGQISDDGALKKLASEVLAANPQALADWKAGKQQAVSFLVGQAMKASKGRGDAALLGELIRAALD	0.0134
HMRSFRIGGLVEQGSIARDGQSLTVRFAVTDLAHKIPVTYTGLLPDLFKEGKGVVAEGKLGPDGVFHASQV	-0.0153
HMNENDENLRQQAIDASKEVRRWGEPVTLPPMNAHDRRIIHITLEGESDLQTESTGEGNFKSVVISLK	-0.111
HMPDTETLTPRQRQILDLVQELGFTTIETLAERFGVSAQTVRREIIRLQAGNFLQRFHGGAGLASGGIRSA	-0.632
HMFPNSFSEREKEVVDLLLQAKSNKQIAFSLGITNRTVEYHLGNIFAKLGVSSRSEAILTITNYKNQ	-2.01
HMKELAADFSRRIINARTSKGWSQADLGQRMAETINVIKSAESGKPPTDAVVKKFETVLGVILM	-0.641
HMLDLPEISARIMEVFETKDRATISELSKLTGTNINTIKKHLSSLVENNYLIKHGKTRGAWYTKST	-0.104
HMPAPAPDIPYHSRVSVRRADGFYEGTWTNTAPILDYTGRWMVNVSLGGKRVFVPVEEVVVH	-0.862
HMETSVDEVYKKIQAYIEAEDKHKPLSDQKLAEQLQSDGLKVSRRTVAKYREKLNIASSSKRKR	0.358
HMIKDSKAAYKILGVDENATNEEIKKAYRQLVINHHPDKVSHLGEDIQRAANEKLKQINAAYDEIKKQRGF	0.237
HMKNAYDLKMLVKDNDGNIERNMKYYFFLANGSKVEGITDDNGYTKTITTIQPEKADLHLINDELI	-1.1
HMVELNDNEKIVYDILKETEKIHIDELTAKVQLTQSILSGALVQMEMKGMIVSLPGKMYKLL	-0.132
HMEFQVKVIVSSLNIRSGPGTSYDTLGTVTKGDIFTIVETNSDSTWGKMQSGGWISIKDAYVKK	-0.688
HMNLYHALDQQGEVYLTIPPRQSGRGKVTLMIDGRVREMDAMTDGDALKTGSKVRVTEILDENALKVEAM	0.207
HMEEYTVEFVKHKVKRKQTLYTISKLYNVSIDDIIKYNSQIEGFNLSRRMELNIPVKKTLIVKNE	-1.7
HMSDESALIAAIEKAIAAQPETAEKVRNGHLPAAGALIGSVMKETKGQADAARVRELLLGLLGQ	0.139
HMENTIESLLKAKGFNDIIVTVSDKQVDVVVSDKEIADNKRAQIEDVIKRKTGLEASAITITPA	0.0688
HMLSGGEVKRIEIATILARKSGLMIFDEPEAGIDLWSFARLVETFEDIRSNTSGSLVIISHQ	0.00488
HMDSINGEASISRELHGTRFDQAAAILFPEFSRSRLQAWIGAGALTLDGQTARAKDKVTQGQHLVLAAAVE	-0.0684
HMDVNMLVTGMLHKGEKSFVRVSFLRGKDWAEGIVPDAKIEKSQGFMEEEVARLEAYLLEQKSMIMEQA	-1.32
HMIVPPAIPFRALGIFGPRDRPIVTFEDGPRLINAREGDVLDGRFILRRVGRESVDFAFVGLPPEITRRIP	-0.466
HMDDKLKKLEEVFEMQEGTLTPDMRLDELEEWDSMTRLSLIVMMEDDYGKKVKRSEVMNYTTVQDIVDSME	-0.5
HMENFYGYEIINPEAKKFFITMGVNRYALEQWIKNKSEYGLIIVKSLYPFDPRLKLFLEKNRERIQNLIF	-0.566
HMKIRKAVIPAAGLGTRVLPASKSIPKEMLPIVDKPVIQYIVEEAVKAGITEILIITGRGKGAIEDHFDRS	-0.122
HMFDTVTIGRKIAELRKAHNMTQFELADALGISFQAVSNWERGASMPDISKLPELAEIFGVTIDEVLGK	-0.839
HMDKVSYALGLGIGRQLTDMGAKDLNIDDFAQAIKDVLAGGEVKLSDAEAQTIVRNFFDEQEKKQRA	-0.0034

Sequence	soluble fraction (log2)
HMQMSDTSMIRDLVLQVLAENPQSIEDFKNGKDRAVGFLVGMVMKKSQGKANPQITNQMIVEELKK	-0.104
HMKDDLTWSEGLMPNVVGMGLRDAMFMLENSGLRVNYSGRGKVTRQSPQPGVRIKRGATVAIELRL	-0.395
HMEKIIGQIQINQRGNGYVIVPNVKDDIFVKRENLNSARQGDRVAVQLLSRPNQKPEGLVQEVLERGQ	0.461
HMSDPASLQRRLMSDPELTARILDSPFTRSLLDDPNLLRQMVNANPQLRRAMDANPQLRHAL	-0.21
HMEFDTEFVLRQAMHAFMQYGYAKTSMQKLKEATHLHPGSIYAAYGNKKGLFLAATEQYQKDR	-0.0761
HMKLGYTVHGNVVTVKAVANGISLYNTIGQKVAESTDGQTVKAPAHGVYILSVQGKSGSRETAKIVI	-0.39
HMGPVALGVTDGATYFSSVTITFRRGTAVLDGEPIASGHTVYKSGAHSLTLTAGGKTRTIAFTMDT	-4.23
HMKEIYIDRGKEALEKELRKRKIPFQEFLSKENTNLLFDTLKIPSHDLEELYLEIGNGKHAASTVVNTVY	0.136
HMQERTVVKGVVVQVSRDEAYVDIGYKQEIPVSKRDLAVPAPDDARDVVKVGDEIDVYIKSLGGDNGG	-0.00098
HMGTQIKSPMPGTILDVRVNVGDTVKEGDILMILEAMKMENEILAPVSGKVAAIQVSKGTAVNSGDLLAVL	0.224
HMIKLSTNENTALRLVMERGLVTESELKGLFDNPVAVMESLISKMIETNTHWIHSERSENGEWVYAWQ	-0.456
HMSMLGTEQRVLVLGPARKGEGFLMARTDNNRIVNFEGPLSLVDTMVRVKVTDVYPHSLGGQLL	-1.55
HMSQTDTDAKDARQKILALLSDGEWHQKTELLKIDAPKEAVSNAIRYLVLEELISIDHAKVRA	-0.489
HMKHTQTDEGELLSTLRTLFPNSSSSSLRKMLTQGRILVNQEVVHRAKHALQAGDEIEVLARQ	-0.122
HMRGLIEPLSQRELEVLMLMARGQSNAHIADQLNISENTIKWHGRNIFGKLGVSNRTEAVITSQEMGMLAT	-0.621
HMDDHKQHLIDFYHSRKRMPTYTEMMALFGYKSKNAVARLVEKMIDAGIVTKDKLGKLLPTTLFDSVPL	0.0577
HMLQQKESAALGERLLNQALATLKVEPDAISWDRWEALAKEYGAKSQLDILADIGLGKRLSFVVAQALTKV	-0.535
HMDIINLADNIARLRRRRQITQEELADYLGVTKAAVSKWENRQTMPDILLLPRLAGLFEVTIDELVGY	-1.42
HMGISEKVINIIETYTMIARKKYPSVKSLAEHFNVSERTVHRYLEIIKMIDVVDYDREKKGYFFPYGDR	-1.11
HMISESIPAKDALLRLLNTAYQTRTNAAGEFYFNDVPPGKYILQASVNDVEIIRENISINEN	-0.249
HMVILPGEKMVVKIVQPGKEKGQGVGYLADGTMIVVDSGDKMIGQDVPTEITRVFQTVAGKMLFAVPVD	-0.426
HMKGPLKDLGPDPVTGKSILVKDGKFGTYVTDGETNATLRRGDIVELLTLERGMELLAEKRARATQ	0.151
HMGTWKKIGTMTATVNDLYVRETPNGYIMGFINKGTVVEVDGKTTGKWTHAKVEGIGVGWIWTGYLDK	-3.47
HMSLDLERAVALLSLPRPVGNHPEDGELVEAGIGRYGPYVKHGSKYANLPDADEVFTIGMNRAVEVLAAK	-0.0399
HMAEVPDLRNKTQQEAEAELTNHNLKLGNVTEEYSATVEAGRVISQSTSYGTKVLEGSSVDITISKGPEPT	-0.0123
HMDTNKMLIVNSISNGMKRLQELQDPQLAEIQKTFSGLDEQKATSAQLAQINNIINNRIAEIEG	0.145

Sequence	soluble fraction (log2)
HMSFNGTILSNYQKTYPNLAKFTYDQANDALVYEGNFIKLNGYGLSRIDPVFFNMNPDEIFIFIKNG	-3.51
HMSDILALMPGTIKQILVAPGDSVKRGQTVIIMESMKMELTIAAHRDGVVKRIPVEQGGQVEKGMRLLELE	0.256
HMTKKFQIQTLDKLNVRKVADWNASAVTTVKKGQILDVVAEVSPKNGSTKMYKLESGLYITASEKYVKKQG	0.0509
HMSSIRDVVPEGLLSDREKLVLVLAFDRDLDGPDMARTLGISANTVRVLKARALKKLRQAGIQP	-0.957
HMRQGHLDLLRQIHALPPSTREVVYLRAFGGLSFREIGDVLGRTETWARVTFYRGKEALRKG	0.0194
HMNSKMTYSELITSMENKEVESVKISSSGDVASVKLKNSKTEKEVKIPSLDSFMTYTEQYLKTGEITLEE	0.175
HMEDELVMERFDINELVKSVVNANELRATQKNLSITYDILDTPLYVWADEYKVEEVVTNYLS	-0.143
HMRRMAYLVGQRGLAMGDFISGTGQVRIGDTVWRAEAVEGELVRTGDTVVVEGAKMTTAIVRRVM	-0.351
HMTVLSKEEFVAIEQRLLQLLGTAPVDNKILLQQLSGIKKEKAWKVLSFLQAENKIGMDATGRVYL	-0.439
HMNTEEKILEKEFLMLYSELGLQPKNIYELMENTGLKYEKLVEMLLQLQLKGLVEQPSYNYYSRL	-1.02
HMTVEMYIGKTANVLETVTENNGRIAIFGEEWQAKSLNGETIEKGAQAKIVKNDSIIMYVVPI	0.0967
HMQKIEKVDYGTFLKMIENGEIDQVNLTEKKISFTTDKDAETVYETGRVEDPNIVDRLYQADVEFTQEI	0.207
HMVGQIISNARKQEKMTQSELAEKVGTNKTYISRIEKGVIEPGVGLFFRIIDALGLKIEIVKP	-1.25
HMNTEEVGSYLKKLRLEHSFTQKELAGKLYITHQAVSNWEKGKALPDIGILSQLGDIYGISIDNLLLK	-1.79
HMLSVRERMSAILVSLEGERYADFTGLFDPTEGKGGVTVTFLAILELLKESMIDVVQNELYGPIHVRAA	-0.368
HMTRLDLQNAFRVLPPEIQPAAVLFFLQERKQREIAKILGIGLPLVKYRIRKARELLAQFLRKEA	-0.241
HMQKFINQEHEKAYNLMLEKDYQQALKIFDDLIYLFPNEANLLSDRGVIFIHLNKKEAALQDFDQAVF	-2
HMNPSFTMGTRIKEYIDAHYLEDLKLADIAEALHINLYYLSHTFKDLTGSSPMQYIIRRRIEE	-0.778
HMTKYEKKIFEIVNASRDHLTAEQVLAALREEYPAVSQATVYNNLKKLTSDGLLRKLTLADSPDRYD	-0.208
HMVDPWLEQVHRASAAYATAHGSARIPTTHPDLGWKVVRVRQRHRKGLLSDEWVAKFEALPGWTWEPK	-0.282
HMTKTFDSPEDADNDVLAKTLFQIFGVQSVYLKENFVTITKSNSVGWHTLMEKTGHTLEEHLKF	0.0987
HMSDEIQLQFIQISIFKDHPWADMQIKDMNIIPDLLIVMILRDGERIIPNGNTRIMPGDMVIITAMSANT	-2.89
HMSDESRAEIVSSAKRLFQQYGYKKTTVSDIAKAMGKVKSAIYYYFPDKESLLRAVIDEEVG	-0.0483
HMDYRSMSGLQKAALLIMSVGEETAAKLFQLMHDDEIREISQTMANLGTVNATVIERLFVEFADAISS	-0.966
